Source: publication PMC9464236, “Biochemical characterization of a disease-causing human osteoprotegerin variant” (Scientific Reports, 2022)
“And” between values parts separate entries of the source, which are not always exact repeats. Equal values may be shown once.

Columns and labels:
[1] = target: T1, recombinant soluble RANKL (sRANKL) (UniProt O35235 139-316); experiment: ELISA
T1 chain: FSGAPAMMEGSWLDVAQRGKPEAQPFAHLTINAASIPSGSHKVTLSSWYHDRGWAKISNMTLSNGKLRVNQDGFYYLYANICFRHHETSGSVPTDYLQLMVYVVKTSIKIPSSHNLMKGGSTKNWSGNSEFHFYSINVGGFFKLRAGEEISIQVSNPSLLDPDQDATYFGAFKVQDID

[2] = target: the molecule itself; experiment: SEC; Superdex 200, 25 mM HEPES pH 7.1, 150 mM NaCl; peak fractions from the heparin Sepharose column; ferritin (440 kDa) and IgG (150 kDa) as markers

Binder	Kd [1]	stoichiometry N [2]
human osteoprotegerin Stop402Leu mutant with a 19-residue C-terminal appendage (OPG^+19) (receptor, Osteoprotegerin (OPG, TNFRSF11B), human; complete open reading frame, residues up to 401, followed by the read-through appendage; 19-residue appendage 402-420 made by read-through of the mutated stop codon (Stop402Leu); Secreted; Mixture of higher-order oligomers; also called mutant hOPG; mutant OPG; source: 293-freestyle cells, transiently transfected; purified from medium (heparin Sepharose, …)) ETFPPKYLHYDEETSHQLLCDKCPPGTYLKQHCTAKWKTVCAPCPDHYYTDSWHTSDECLYCSPVCKELQYVKQECNRTHNRVCECKEGRYLEIEFCLKHRSCPPGFGVVQAGTPERNTVCKRCPDGFFSNETSSKAPCRKHTNCSVFGLLLTQKGNATHDNICSGNSESTQKCGIDVTLCEEAFFRFAVPTKFTPNWLSVLVDNLPGTKVNAESVERIKRQHSSQEQTFQLLKLWKHQNKDQDIVKKIIQDIDLCENSVQRHIGHANLTFEQLRSLMESLPGKKVGAEDIEKTIKACKPSDQILKLLSLWRIKNGDQDTLKGLMHALKHSKTYHFPKTVTQSLKKTIRFLHSFTMYKLYQKLFLEMIGNQVQSVKISCLLLEMAIELFPHNWRDPMDE	4.65 nM	12 and 6 and 4
wildtype human osteoprotegerin (WT OPG) (receptor, UniProt O00300 22-401, looked up, Osteoprotegerin (OPG, TNFRSF11B), human; complete open reading frame of full-length human OPG in pcDNA3.4-TOPO; stop codon at position 402; Disulfide-linked dimer; assays used the SEC-purified dimer; also called WT hOPG; hOPG; source: 293-freestyle cells, transiently transfected; purified from medium (heparin Sepharose, Superdex 200)) ETFPPKYLHYDEETSHQLLCDKCPPGTYLKQHCTAKWKTVCAPCPDHYYTDSWHTSDECLYCSPVCKELQYVKQECNRTHNRVCECKEGRYLEIEFCLKHRSCPPGFGVVQAGTPERNTVCKRCPDGFFSNETSSKAPCRKHTNCSVFGLLLTQKGNATHDNICSGNSESTQKCGIDVTLCEEAFFRFAVPTKFTPNWLSVLVDNLPGTKVNAESVERIKRQHSSQEQTFQLLKLWKHQNKDQDIVKKIIQDIDLCENSVQRHIGHANLTFEQLRSLMESLPGKKVGAEDIEKTIKACKPSDQILKLLSLWRIKNGDQDTLKGLMHALKHSKTYHFPKTVTQSLKKTIRFLHSFTMYKLYQKLFLEMIGNQVQSVKISCL	4.8 nM	2
